For the series, the system named is Escherichia coli TOP10. Put plainly: shrunken log2 fold change of peptide-encoding DNA abundance (4.5 h post-induction vs induction); higher = less antimicrobial activity (less host growth inhibition). As to conditions: time post-induction: 4.5 h; library: site-saturation at positions 5, 18, 19, 20.
In the case of RRIRFRPPRLPRPRPRPFLEPRP, the “shrunken log2 fold change” value is -0.355. Turning to RRIRQRPPRLPRPRPRPETMPRP, the “shrunken log2 fold change” value turned out to be 0.192.

On to RRIRVRPPRLPRPRPRPSMPPRP, for which the “shrunken log2 fold change” value is -0.343. With RRIRERPPRLPRPRPRPQQIPRP, the “shrunken log2 fold change” value is -0.384.

On to RRIRVRPPRLPRPRPRPAGSPRP, for which the “shrunken log2 fold change” value was 0.29. For the sequence RRIRIRPPRLPRPRPRPELMPRP, the “shrunken log2 fold change” value is -0.00872. As to RRIRDRPPRLPRPRPRPFHTPRP, the “shrunken log2 fold change” value is -0.569. The result for RRIRERPPRLPRPRPRPRHDPRP reads -0.328; that for RRIRMRPPRLPRPRPRPFENPRP, 0.00631; that for RRIRTRPPRLPRPRPRPRKKPRP, 0.173. Regarding RRIRMRPPRLPRPRPRPHSKPRP, the “shrunken log2 fold change” value was -0.0418. To RRIRSRPPRLPRPRPRPLQSPRP belongs 0.49; to RRIRRRPPRLPRPRPRPLQWPRP, 0.292; to RRIRIRPPRLPRPRPRPRCIPRP, -0.44. Turning to RRIRMRPPRLPRPRPRPLGEPRP, the “shrunken log2 fold change” value came out at 0.317. The result for RRIRARPPRLPRPRPRPFQQPRP reads 0.00604. For RRIRFRPPRLPRPRPRPWPVPRP, the “shrunken log2 fold change” value stood at 0.139.

Take RRIRMRPPRLPRPRPRPCGAPRP: the “shrunken log2 fold change” value turned out to be 1.15.

For RRIRIRPPRLPRPRPRPFGKPRP, the “shrunken log2 fold change” value was -0.0569. The result for RRIRQRPPRLPRPRPRPRFHPRP reads -0.177. To RRIRIRPPRLPRPRPRPTSIPRP belongs -0.182.

As for RRIRYRPPRLPRPRPRPSPGPRP, the “shrunken log2 fold change” value was -0.726. The result for RRIRFRPPRLPRPRPRPIVEPRP reads 0.0776. As to RRIRTRPPRLPRPRPRPWFLPRP, the “shrunken log2 fold change” value is -0.401. RRIRVRPPRLPRPRPRPYQLPRP: the “shrunken log2 fold change” value is -0.228. To RRIRIRPPRLPRPRPRPRFLPRP belongs -0.216. To RRIRWRPPRLPRPRPRPEDYPRP belongs -0.00903; to RRIRFRPPRLPRPRPRPMEEPRP, 0.279. For the sequence RRIRQRPPRLPRPRPRPIWCPRP, the “shrunken log2 fold change” value was -0.0171. With RRIRLRPPRLPRPRPRPVEIPRP, the “shrunken log2 fold change” value turned out to be 0.0548. To RRIRYRPPRLPRPRPRPDRIPRP belongs -0.00973; to RRIRMRPPRLPRPRPRPWHFPRP, 0.201; to RRIRTRPPRLPRPRPRPAKPPRP, 0.583. In the case of RRIRVRPPRLPRPRPRPKGNPRP, the “shrunken log2 fold change” value was found to be 0.143. Take RRIRERPPRLPRPRPRPIRIPRP: the “shrunken log2 fold change” value is -0.00822. Consider RRIRVRPPRLPRPRPRPDQVPRP, for which the “shrunken log2 fold change” value is -0.202. With RRIRERPPRLPRPRPRPETWPRP, the “shrunken log2 fold change” value was -0.0594. The result for RRIRFRPPRLPRPRPRPQSVPRP reads -0.0251; that for RRIRQRPPRLPRPRPRPGVSPRP, -0.0696; that for RRIRVRPPRLPRPRPRPSGLPRP, 0.0687. To RRIRSRPPRLPRPRPRPTDDPRP belongs -0.0687; to RRIRVRPPRLPRPRPRPNGAPRP, -0.0189; to RRIRPRPPRLPRPRPRPDWLPRP, 0.288.

RRIRARPPRLPRPRPRPFSPPRP: the “shrunken log2 fold change” value was -0.342.

Turning to RRIRGRPPRLPRPRPRPCTRPRP, the “shrunken log2 fold change” value was 0.0901.

With RRIRRRPPRLPRPRPRPPCVPRP, the “shrunken log2 fold change” value is 1.02. The result for RRIRVRPPRLPRPRPRPKCFPRP reads -0.213; that for RRIRIRPPRLPRPRPRPNLCPRP, -0.0543; that for RRIRMRPPRLPRPRPRPCWMPRP, 0.114.

As to RRIRRRPPRLPRPRPRPEKLPRP, the “shrunken log2 fold change” value amounted to 0.128. To RRIRERPPRLPRPRPRPEYHPRP belongs -0.242; to RRIRVRPPRLPRPRPRPFFEPRP, 0.142; to RRIRQRPPRLPRPRPRPYPEPRP, -0.0761.

As for RRIRSRPPRLPRPRPRPNNYPRP, the “shrunken log2 fold change” value is -0.597. To RRIRSRPPRLPRPRPRPWILPRP belongs -0.0844; to RRIRPRPPRLPRPRPRPKLPPRP, 0.298. On to RRIRNRPPRLPRPRPRPNQHPRP, for which the “shrunken log2 fold change” value was -0.116. For the sequence RRIRLRPPRLPRPRPRPPEKPRP, the “shrunken log2 fold change” value was found to be 0.0964. To RRIRTRPPRLPRPRPRPENLPRP belongs -0.0254; to RRIRGRPPRLPRPRPRPATVPRP, 0.244; to RRIRVRPPRLPRPRPRPHWWPRP, 0.355. To RRIRERPPRLPRPRPRPKRPPRP belongs 0.194; to RRIRRRPPRLPRPRPRPFPFPRP, -0.0334; to RRIRGRPPRLPRPRPRPVEWPRP, 0.0602. In the case of RRIRNRPPRLPRPRPRPAWKPRP, the “shrunken log2 fold change” value turned out to be 0.122.

As for RRIRWRPPRLPRPRPRPFAHPRP, the “shrunken log2 fold change” value was -0.0296.

On to RRIRVRPPRLPRPRPRPIFPPRP, for which the “shrunken log2 fold change” value amounted to 0.199.

Regarding RRIRPRPPRLPRPRPRPSPFPRP, the “shrunken log2 fold change” value is -0.0752. To RRIRWRPPRLPRPRPRPQFCPRP belongs -0.0503; to RRIRYRPPRLPRPRPRPAFVPRP, -0.178. The result for RRIRCRPPRLPRPRPRPWWPPRP reads 0.0266. To RRIRPRPPRLPRPRPRPQWNPRP belongs 0.36; to RRIRNRPPRLPRPRPRPGCGPRP, 0.451.

Take RRIRCRPPRLPRPRPRPITEPRP: the “shrunken log2 fold change” value is -0.206. For the sequence RRIRCRPPRLPRPRPRPRVKPRP, the “shrunken log2 fold change” value is 0.196.

On to RRIRERPPRLPRPRPRPDDQPRP, for which the “shrunken log2 fold change” value is -0.252.

For RRIRVRPPRLPRPRPRPDKEPRP, the “shrunken log2 fold change” value came to 0.000945. As for RRIRVRPPRLPRPRPRPAEGPRP, the “shrunken log2 fold change” value is -0.0119. The result for RRIRTRPPRLPRPRPRPTISPRP reads -0.488; that for RRIRSRPPRLPRPRPRPIIHPRP, -0.526; that for RRIRMRPPRLPRPRPRPRHCPRP, 0.28. As for RRIRRRPPRLPRPRPRPCMMPRP, the “shrunken log2 fold change” value is -0.292.

As to RRIRRRPPRLPRPRPRPNGTPRP, the “shrunken log2 fold change” value is 0.219. With RRIRERPPRLPRPRPRPSIKPRP, the “shrunken log2 fold change” value is -0.755.

With RRIRHRPPRLPRPRPRPGPKPRP, the “shrunken log2 fold change” value is -0.0906.

In the case of RRIRCRPPRLPRPRPRPTYDPRP, the “shrunken log2 fold change” value is -0.609. Regarding RRIRHRPPRLPRPRPRPWTEPRP, the “shrunken log2 fold change” value came out at 0.0218.

With RRIRFRPPRLPRPRPRPCIHPRP, the “shrunken log2 fold change” value was -0.0499. The result for RRIRTRPPRLPRPRPRPTINPRP reads -0.565; that for RRIRYRPPRLPRPRPRPRDTPRP, -0.378; that for RRIRTRPPRLPRPRPRPWYVPRP, -0.275. For the sequence RRIRNRPPRLPRPRPRPTSIPRP, the “shrunken log2 fold change” value was -0.531. The result for RRIRMRPPRLPRPRPRPQAGPRP reads 0.214; that for RRIRWRPPRLPRPRPRPDSGPRP, -0.0735; that for RRIRARPPRLPRPRPRPLCGPRP, 0.467. Take RRIRDRPPRLPRPRPRPYTTPRP: the “shrunken log2 fold change” value was -0.556. To RRIRGRPPRLPRPRPRPIKFPRP belongs 0.211. For the sequence RRIRHRPPRLPRPRPRPYKQPRP, the “shrunken log2 fold change” value was -0.0238.

For RRIRARPPRLPRPRPRPLEYPRP, the “shrunken log2 fold change” value was -0.498. On to RRIRYRPPRLPRPRPRPDSLPRP, for which the “shrunken log2 fold change” value is -0.142. To RRIRRRPPRLPRPRPRPHMFPRP belongs 0.119; to RRIRIRPPRLPRPRPRPEEIPRP, -0.0261.

Turning to RRIRTRPPRLPRPRPRPFRNPRP, the “shrunken log2 fold change” value stood at 0.0337. The result for RRIRCRPPRLPRPRPRPCCLPRP reads -0.35. The result for RRIRCRPPRLPRPRPRPFGIPRP reads -0.129.

As to RRIRSRPPRLPRPRPRPIKVPRP, the “shrunken log2 fold change” value is -0.181. As to RRIRWRPPRLPRPRPRPWGPPRP, the “shrunken log2 fold change” value worked out at 0.384. Consider RRIRMRPPRLPRPRPRPMEHPRP, for which the “shrunken log2 fold change” value is 0.0124. For RRIRPRPPRLPRPRPRPNKLPRP, the “shrunken log2 fold change” value is 0.448. Turning to RRIRWRPPRLPRPRPRPCMHPRP, the “shrunken log2 fold change” value was -0.0533. For the sequence RRIRRRPPRLPRPRPRPVEWPRP, the “shrunken log2 fold change” value is -0.182.

Turning to RRIRRRPPRLPRPRPRPKQHPRP, the “shrunken log2 fold change” value worked out at 0.302.

RRIRLRPPRLPRPRPRPLEDPRP: the “shrunken log2 fold change” value is -0.076. To RRIRWRPPRLPRPRPRPEAHPRP belongs 0.219; to RRIRMRPPRLPRPRPRPFTCPRP, -0.173; to RRIRRRPPRLPRPRPRPFFDPRP, 0.296. To RRIRNRPPRLPRPRPRPPKRPRP belongs 0.497; to RRIRPRPPRLPRPRPRPKFRPRP, -0.122; to RRIRYRPPRLPRPRPRPSIMPRP, -1.54.

Take RRIRHRPPRLPRPRPRPAGQPRP: the “shrunken log2 fold change” value was -0.00146. Regarding RRIRYRPPRLPRPRPRPNPFPRP, the “shrunken log2 fold change” value is -0.0444. The result for RRIRSRPPRLPRPRPRPGNQPRP reads -0.0918; that for RRIRSRPPRLPRPRPRPKIKPRP, -0.346. The result for RRIRPRPPRLPRPRPRPRRTPRP reads 0.507. In the case of RRIRIRPPRLPRPRPRPWHHPRP, the “shrunken log2 fold change” value was -0.126.

Source of the values: the supplement of paper PMC9112550, “Optimization of the antimicrobial peptide Bac7 by deep mutational scanning” (BMC Biology, 2022).
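Also: peptides expressed intracellularly from a pBAD plasmid library in pooled LB shake-flask culture, induced with 0.3% L-arabinose, DNA abundance read by NGS, three biological replicates, DESeq2 with apeglm shrinkage.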
